Laboratory results taken from patent publication US20250114433A1 (published 2025).
Numbering of substitutions follows the chain as printed.

T1: KRAS G12V peptide on HLA-A*02:01 (human)
T1 peptide: KLVVVGAVGV

T2: KRAS G12D (same sequence in NRAS and HRAS G12D) peptide on HLA-A*11:01 (human)
T2 peptide: VVGADGVGK

T3: KRAS G12V (same sequence in NRAS and HRAS G12V) peptide on HLA-A*11:01 (human)
T3 peptide: VVVGAVGVGK

T4: KRAS G12D (same sequence in NRAS and HRAS G12D) peptide on HLA-A*11:01 (human)
T4 peptide: VVVGADGVGK

T5: KRAS G12V (same sequence in NRAS and HRAS G12V) peptide on HLA-A*11:01 (human)
T5 peptide: VVGAVGVGK

B1: A2 KRAS TCR03 (TCR, V domains shown)
Valpha: GEDVEQSLFLSVREGDSSVINCTYTDSSSTYLYWYKQEPGAGLQLLTYIFSNMDMKQDQRLTVLLNKKDKHLSLRIADTQTGDSAIYFCAERTDTDKLIFGTGTRLQVFP
Vbeta: GAGVSQTPSNKVTEKGKYVELRCDPISGHTALYWYRQSLGQGPEFLIYFQGTGAADDSGLPNDRFFAVRPEGSVSTLKIQRTERGDSAVYLCASSPLAANEQFFGPGTRLTVL
B2: A2 KRAS TCR04 (TCR, V domains shown)
Valpha: AQKVTQAQTEISVVEKEDVTLDCVYETRDTTYYLFWYKQPPSGELVFLIRRNSFDEQNEISGRYSWNFQKSTSSFNFTITASQVVDSAVYFCALMDSSYKLIFGSGTRLLVRP
Vbeta: GAVVSQHPSWVICKSGTSVKIECRSLDFQATTMFWYRQFPKQSLMLMATSNEGSKATYEQGVEKDKFLINHASLTLSTLTVTSAHPEDSSFYICSAFLSGSADTQYFGPGTRLTVL
B3: A2 KRAS TCR05 (TCR, V domains shown)
Valpha: AQSVTQPDIHITVSEGASLELRCNYSYGATPYLFWYVQSPGQGLQLLLKYFSGDTLVQGIKGFEAEFKRSQSSFNLRKPSVHWSDAAEYFCAVGDENTGFQKLVFGTGTRLLVSP
Vbeta: DVKVTQSSRYLVKRTGEKVFLECVQDMDHENMFWYRQDPGLGLRLIYFSYDVKMKEKGDIPEGYSVSREKKERFSLILESASTNQTSMYLCASALRGTYEQYFGPGTRLTVT
B4: A2 KRAS TCR08 (TCR, V domains shown)
Valpha: GEDVEQSLFLSVREGDSSVINCTYTDSSSTYLYWYKQEPGAGLQLLTYIFSNMDMKQDQRLTVLLNKKDKHLSLRIADTQTGDSAIYFCAERIDSGNTPLVFGKGTRLSVIA
Vbeta: B3 Vbeta with S93I, A94E, L95P, R96P, G97T, T98G, Y99N
B5: A2 KRAS TCR09 (TCR, V domains shown)
Valpha: GESVGLHLPTLSVQEGDNSIINCAYSNSASDYFIWYKQESGKGPQFIIDIRSNMDKRQGQRVTVLLNKTVKHLSLQIAATQPGDSAVYFCAEIFNDYKLSFGAGTTVTVRA
Vbeta: EAQVTQNPRYLITVTGKKLTVTCSQNMNHEYMSWYRQDPGLGLRQIYYSMNVEVTDKGDVPEGYKVSRKEKRNFPLILESPSPNQTSLYFCASSQAGLGNEQFFGPGTRLTVL
B6: A2 KRAS TCR11 (TCR, V domains shown)
Valpha: DQQVKQNSPSLSVQEGRISILNCDYTNSMFDYFLWYKKYPAEGPTFLISISSIKDKNEDGRFTVFLNKSAKHLSLHIVPSQPGDSAVYFCAAISLTSGTYKYIFGTGTRLKVLA
Vbeta: DTEVTQTPKHLVMGMTNKKSLKCEQHMGHRAMYWYKQKAKKPPELMFVYSYEKLSINESVPSRFSPECPNSSLLNLHLHALQPEDSALYLCASSQDLGTVYEQYFGPGTRLTVT
B7: A2 KRAS TCR12 (TCR, V domains shown)
Valpha: AQSVTQLDSQVPVFEEAPVELRCNYSSSVSVYLFWYVQYPNQGLQLLLKYLSGSTLVESINGFEAEFNKSQTSFHLRKPSVHISDTAEYFCAVTRDDKIIFGKGTRLHILP
Vbeta: DVKVTQSSRYLVKRTGEKVFLECVQDMDHENMFWYRQDPGLGLRLIYFSYDVKMKEKGDIPEGYSVSREKKERFSLILESASTNQTSMYLCASSLQVSGVAGYTFGSGTRLTVV
B8: A2 KRAS TCR15 (TCR, V domains shown)
Valpha: B1 Valpha with R92M, T93M
Vbeta: EAGVAQSPRYKIIEKRQSVAFWCNPISGHATLYWYQQILGQGPKLLIQFQNNGVVDDSQLPKDRFSAERLKGVDSTLKIQPAKLEDSAVYLCASSLPSGNEQFFGPGTRLTVL
B9: A2 KRAS TCR18 (TCR, V domains shown)
Valpha: GEDVEQSLFLSVREGDSSVINCTYTDSSSTYLYWYKQEPGAGLQLLTYIFSNMDMKQDQRLTVLLNKKDKHLSLRIADTQTGDSAIYFCAVLLDNQGGKLIFGQGTELSVKP
Vbeta: B3 Vbeta with A94R, L95G, R96L, G97S, Y99D, E100T, T112L
B10: A11_TCR22 (TCR, V domains shown)
Valpha: QKEVEQDPGPLSVPEGAIVSLNCTYSNSAFQYFMWYRQYSRKGPELLMYTYSSGNKEDGRFTAQVDKSSKYISLFIRDSQPSDSATYLCAMSAGAAGNKLTFGGGTRVLVKP
Vbeta: EADIYQTPRYLVIGTGKKITLECSQTMGHDKMYWYQQDPGMELHLIHYSYGVNSTEKGDLSSESTVSRIRTEHFPLTLESARPSHTSQYLCASSQGLYNEQFFGPGTRLTVL
B11: TCR17 (TCR, V domains shown)
Valpha: KVTQAQTEISVVEKEDVTLDCVYETRDTTYYLFWYKQPPSGELVFLIRRNSFDEQNEISGRYSWNFQKSTSSFNFTITASQVVDSAVYFCALSEVHASGGSYIPTFGRGTSLIVHP
Vbeta: DVKVTQSSRYLVKRTGEKVFLECVQDMDHENMFWYRQDPGLGLRLIYFSYDVKMKEKGDIPEGYSVSREKKERFSLILESASTNQTSMYLCASSLGAGQHNSPLHFGNGTRLTVT
B12: A11_TCR16 (TCR, V domains shown)
Valpha: KDQVFQPSTVASSEGAVVEIFCNHSVSNAYNFFWYLHFPGCAPRLLVKGSKPSQQGRYNMTYERFSSSLLILQVREADAAVYYCVLNRDDKIIFGKGTRLHILP
Vbeta: DAGVIQSPRHEVTEMGQEVTLRCKPISGHDYLFWYRQTMMRGLELLIYFNNNVPIDDSGMPEDRFSAKMPNASFSTLKIQPSEPRDSAVYFCASSRLGPYNEQFFGPGTRLTVL
B13: TCR20 (TCR, V domains shown)
Valpha: DAKTTQPPSMDCAEGRAANLPCNHSTISGNEYVYWYRQIHSQGPQYIIHGLKNNETNEMASLIITEDRKSSTLILPHATLRDTAVYYCIVRLNSGNTPLVFGKGTRLSVIA
Vbeta: EAGVAQSPRYKIIEKRQSVAFWCNPISGHATLYWYQQILGQGPKLLIQFQNNGVVDDSQLPKDRFSAERLKGVDSTLKIQPAKLEDSAVYLCASSPTFPAGDRDTQYFGPGTRLTVL
B14: TCR21 (TCR, V domains shown)
Valpha: B10 Valpha with A93G, A95N, K99M, V108L, L109M
Vbeta: B10 Vbeta with Q95V
B15: TCR23 (TCR, V domains shown)
Valpha: TQLLEQSPQFLSIQEGENLTVYCNSSSVFSSLQWYRQEPGEGPVLLVTVVTGGEVKKLKRLTFQFGDARKDSSLHITAAQPGDTGLYLCAGVREAGGTSYGKLTFGQGTILTVHP
Vbeta: DAEITQSPRHKITETGRQVTLACHQTWNHNNMFWYRQDLGHGLRLIHYSYGVQDTNKGEVSDGYSVSRSNTEDLPLTLESAASSQTSVYFCASSEYVGAHEQYFGPGTRLTVT
B16: TCR15 (TCR, V domains shown)
Valpha: QKEVEQNSGPLSVPEGAIASLNCTYSDRGSQSFFWYRQYSGKSPELIMFIYSNGDKEDGRFTAQLNKASQYVSLLIRDSQPSDSATYLCAVNARGNMLTFGGGTRLMVKP
Vbeta: SQTIHQWPATLVQPVGSPLSLECTVEGTSNPNLYWYRQAAGRGLQLLFYSVGIGQISSEVPQNLSASRPQDRQFILSSKKLLLSDSGFYLCAWTLTGFGQPQHFGDGTRLSIL
B17: A11 KRAS TCR_220_12 (TCR, V domains shown)
Valpha: AQSVTQLDSHVSVSEGTPVLLRCNYSSSYSPSLFWYVQHPNKGLQLLLKYTSAATLVKGINGFEAEFKKSETSFHLTKPSAHMSDAAEYFCVVSDMVSGYALNFGKGTSLLVTP
Vbeta: DIYQTPRYLVIGTGKKITLECSQTMGHDKMYWYQQDPGMELHLIHYSYGVNSTEKGDLSSESTVSRIRTEHFPLTLESARPSHTSQYLCASSESLYNEQFFGPGTRLTVL
B18: TCR14 (TCR, V domains shown)
Valpha: SQQGEEDPQALSIQEGENATMNCSYKTSINNLQWYRQNSGRGLVHLILIRSNEREKHSGRLRVTLDTSKKSSSLLITASRAADTASYFCATDEGGGADGLTFGKGTHLIIQP
Vbeta: DSGVTQTPKHLITATGQRVTLRCSPRSGDLSVYWYQQSLDQGLQFLIQYYNGEERAKGNILERFSAQQFPDLHSELNLSSLELGDSALYFCASTHGRDSTDTQYFGPGTRLTVL
B19: A11 KRAS TCR_141_1 (TCR, V domains shown)
Valpha: AQTVTQSQPEMSVQEAETVTLSCTYDTSESDYYLFWYKQPPSRQMILVIRQEAYKQQNATENRFSVNFQKAAKSFSLKISDSQLGDAAMYFCALKTSYDKVIFGPGTSLSVIP
Vbeta: NAGVTQTPKFQVLKTGQSMTLQCAQDMNHEYMSWYRQDPGMGLRLIHYSVGAGITDQGEVPNGYNVSRSTTEDFPLRLLSAAPSQTSVYFCASSLGAGEWKSPLHFGNGTRLTVT

Legend:
[1] = biological target: T1, KRAS G12V peptide on HLA-A*02:01; test: multimer staining
[2] = biological target: T2, KRAS G12D (same sequence in NRAS and …); test: cytokine release
[3] = biological target: T3, KRAS G12V (same sequence in NRAS and …); test: cytokine release
[4] = biological target: T4, KRAS G12D (same sequence in NRAS and …); test: cytokine release
[5] = biological target: T5, KRAS G12V (same sequence in NRAS and …); test: cytokine release

Row | Binder | binding result [1] | binding result [2] | binding result [3] | binding result [4] | binding result [5]
1 | B1 | recognises |  |  |  | 
2 | B2 | recognises |  |  |  | 
3 | B3 | recognises |  |  |  | 
4 | B4 | recognises |  |  |  | 
5 | B5 | recognises |  |  |  | 
6 | B6 | recognises |  |  |  | 
7 | B7 | recognises |  |  |  | 
8 | B8 | recognises |  |  |  | 
9 | B9 | recognises |  |  |  | 
10 | B10 |  | no recognition | no recognition | recognises | no recognition
11 | B11 |  | no recognition | no recognition | recognises | no recognition
12 | B12 |  | no recognition | no recognition | recognises | no recognition
13 | B13 |  | no recognition | recognises | no recognition | recognises
14 | B14 |  | no recognition | no recognition | recognises | no recognition
15 | B15 |  | no recognition | recognises | no recognition | no recognition
16 | B16 |  | no recognition | recognises | no recognition | no recognition
17 | B17 |  | no recognition | no recognition | recognises | no recognition
18 | B18 |  | no recognition | no recognition | no recognition | recognises
19 | B19 |  | no recognition | no recognition | recognises | no recognition
